These results are taken from the Immune Epitope Database (IEDB).

Some results are limits rather than exact numbers.

Some targets named below: HLA-B*18:01; HLA-B*40:02; HLA-B*40:01; HLA-B*44:02; HLA-B*45:01; HLA-B*44:03.
Common to all, as to test: IEDB peptide-MHC binding, purified MHC/competitive/radioactivity; filed as Kd, often an IC50 or EC50 that approximates it; ≥ and ≤ were set here for values at or beyond the usual limits of such assays
Where [1] appears, read: source organism: SARS coronavirus Tor2.
Setting [2] is: source organism: Mammarenavirus lassaense.
Setting [3] is: source organism: Mammarenavirus machupoense.
Where [4] appears, read: source organism: Mammarenavirus brazilense.
Where [5] appears, read: source organism: Lymphocytic choriomeningitis virus (strain WE).
[6] abbreviates: source organism: Lymphocytic choriomeningitis virus (strain Armstrong).
Setting [7] is: source organism: Mammarenavirus juninense.

As to REVLSDREL, the Kd in the experiment with HLA-B*18:01 (setting [1]) was determined as 7.33 µM; with HLA-B*40:02 (setting [1]), 102 nM; with HLA-B*40:01 (setting [1]), 15.6 nM; with HLA-B*44:02 (setting [1]), 1220 nM; in the experiment with HLA-B*45:01 (setting [1]) it was 1390 nM; with HLA-B*44:03 (setting [1]) it was 1120 nM.
For the sequence ADNLITEML, the Kd is not below 36.3 µM with HLA-B*18:01 (setting [2]); 415 nM in the experiment with HLA-B*40:02 (setting [2]); not below 27800 nM with HLA-B*40:01 (setting [2]); 6200 nM with HLA-B*44:02 (setting [2]); not below 77700 nM with HLA-B*45:01 (setting [2]); 12300 nM with HLA-B*44:03 (setting [2]).
In the case of EEAALCTFL, the Kd with HLA-B*18:01 (setting [1]) amounted to 11.8 µM; with HLA-B*40:02 (setting [1]), 840 nM; with HLA-B*40:01 (setting [1]), 172 nM; with HLA-B*44:02 (setting [1]), 452 nM; in the experiment with HLA-B*45:01 (setting [1]), 37.8 nM; with HLA-B*44:03 (setting [1]) it was 168 nM.
In the case of DEFIQRYKL, the Kd is 0.0479 µM with HLA-B*18:01 (setting [1]); 2500 nM with HLA-B*40:02 (setting [1]); not below 23900 nM with HLA-B*40:01 (setting [1]); 15900 nM with HLA-B*44:02 (setting [1]); not below 25900 nM with HLA-B*45:01 (setting [1]); 8800 nM in the experiment with HLA-B*44:03 (setting [1]).
Take SELAKGVAL: the Kd came out at 1.11 µM with HLA-B*18:01 (setting [1]); 14.1 nM in the experiment with HLA-B*40:02 (setting [1]); 3.35 nM with HLA-B*40:01 (setting [1]); 132 nM with HLA-B*44:02 (setting [1]); 401 nM with HLA-B*45:01 (setting [1]); 175 nM with HLA-B*44:03 (setting [1]).
Take REVSTAAVT: the Kd was 16.9 µM with HLA-B*18:01 (setting [1]); not below 21100 nM with HLA-B*40:02 (setting [1]); 112 nM in the experiment with HLA-B*40:01 (setting [1]); 16000 nM with HLA-B*44:02 (setting [1]); 30.3 nM with HLA-B*45:01 (setting [1]); 6860 nM in the experiment with HLA-B*44:03 (setting [1]).
In the case of TENLVIEGPT, the Kd in the experiment with HLA-B*18:01 (setting [1]) is not below 56.4 µM; with HLA-B*40:02 (setting [1]), 721 nM; in the experiment with HLA-B*40:01 (setting [1]), not below 42900 nM; with HLA-B*44:02 (setting [1]), 14000 nM; with HLA-B*45:01 (setting [1]), 1830 nM; with HLA-B*44:03 (setting [1]), not below 29100 nM.
On to EELSLMYEAL, for which the Kd was 1.81 µM with HLA-B*18:01 (setting [3]); 205 nM with HLA-B*40:02 (setting [3]); 15400 nM with HLA-B*40:01 (setting [3]); 1790 nM with HLA-B*44:02 (setting [3]); 1590 nM in the experiment with HLA-B*45:01 (setting [3]); 2000 nM with HLA-B*44:03 (setting [3]).
Consider FEIKSAKKF, for which the Kd with HLA-B*18:01 (setting [1]) worked out at 1.08 µM; with HLA-B*40:02 (setting [1]), 621 nM; with HLA-B*40:01 (setting [1]) it was 1710 nM; with HLA-B*44:02 (setting [1]) it was 15.9 nM; with HLA-B*45:01 (setting [1]), 18000 nM; with HLA-B*44:03 (setting [1]) it was 35.3 nM.
As for QELYSPLFL, the Kd amounted to 5.57 µM with HLA-B*18:01 (setting [1]); 155 nM with HLA-B*40:02 (setting [1]); 102 nM with HLA-B*40:01 (setting [1]); 205 nM in the experiment with HLA-B*44:02 (setting [1]); 2210 nM in the experiment with HLA-B*45:01 (setting [1]); 222 nM in the experiment with HLA-B*44:03 (setting [1]).
On to PELKKPITW, for which the Kd in the experiment with HLA-B*18:01 (setting [4]) was not below 77.5 µM; with HLA-B*40:02 (setting [4]), not below 37100 nM; in the experiment with HLA-B*40:01 (setting [4]) it was not below 76100 nM; with HLA-B*44:02 (setting [4]), not below 42800 nM; with HLA-B*45:01 (setting [4]), not below 77700 nM; with HLA-B*44:03 (setting [4]), 14100 nM.
Consider GEPKTVKVL, for which the Kd with HLA-B*18:01 (setting [2]) was not below 77.5 µM; with HLA-B*40:02 (setting [2]), 566 nM; in the experiment with HLA-B*40:01 (setting [2]) it was 18800 nM; in the experiment with HLA-B*44:02 (setting [2]) it was not below 77900 nM; in the experiment with HLA-B*45:01 (setting [2]), not below 77700 nM; with HLA-B*44:03 (setting [2]), not below 78100 nM.
Consider REPTDQKQF, for which the Kd with HLA-B*18:01 (setting [5]) is not below 77.5 µM; with HLA-B*40:02 (setting [5]), 6290 nM; in the experiment with HLA-B*40:01 (setting [5]), not below 20400 nM; with HLA-B*44:02 (setting [5]) it was 1340 nM; with HLA-B*45:01 (setting [5]), not below 77700 nM; with HLA-B*44:03 (setting [5]), 8940 nM.
Consider DELGNILSTY, for which the Kd was 0.00862 µM in the experiment with HLA-B*18:01 (setting [3]); 5380 nM with HLA-B*40:02 (setting [3]); not below 69500 nM with HLA-B*40:01 (setting [3]); 1860 nM with HLA-B*44:02 (setting [3]); not below 70000 nM in the experiment with HLA-B*45:01 (setting [3]); 361 nM with HLA-B*44:03 (setting [3]).
Regarding SEISVILQEL, the Kd with HLA-B*18:01 (setting [6]) is 10.3 µM; with HLA-B*40:02 (setting [6]) it was 544 nM; with HLA-B*40:01 (setting [6]), 868 nM; with HLA-B*44:02 (setting [6]), 106 nM; with HLA-B*45:01 (setting [6]) it was 4170 nM; with HLA-B*44:03 (setting [6]), 240 nM.
As to SEIQLQRLC, the Kd was determined as 10.5 µM with HLA-B*18:01 (setting [4]); 68.5 nM in the experiment with HLA-B*40:02 (setting [4]); 1770 nM with HLA-B*40:01 (setting [4]); 285 nM in the experiment with HLA-B*44:02 (setting [4]); 990 nM with HLA-B*45:01 (setting [4]); 327 nM with HLA-B*44:03 (setting [4]).
AETGSQGVYM: the Kd was not below 70.4 µM with HLA-B*18:01 (setting [7]); 184 nM in the experiment with HLA-B*40:02 (setting [7]); 3030 nM with HLA-B*40:01 (setting [7]); 304 nM with HLA-B*44:02 (setting [7]); 13600 nM with HLA-B*45:01 (setting [7]); 1040 nM in the experiment with HLA-B*44:03 (setting [7]).

Usually Kd stands for the free concentration of one partner at which half of the binding sites on the other are occupied at equilibrium, for simple one-to-one binding.
